The values that follow come from patent publication US7582299B2, “Cripto-specific antibodies” (Biogen Idec MA Inc., priority 2001, dated 2009).

One experiment has as its system T-47D cells. The experiment is described as follows: Proliferation of T-47D cells with Activin A or B (MTT). Format: cell-based, human. To be noted: low serum; compared to untreated cells; FIG. 6. The procedure:
(§1) T47D cells, maintained in RPMI/10% FCS/10 μg/ml insulin, at passage #2 from the ATCC were transfected with an expression plasmid for the Ecotropic Receptor (EcoR; B. Elenbaas) and selected in media containing 100 μg/ml hygromycin. Colonies of T-47D-EcoR that permitted infection of pBABE-GFP murine leukemia virus (MLV) were grown out, infected with pBABE-hCr-PURO-MLV and selected in puromycin media. This oligoclonal line (T-47D-hCr) was analyzed by FACS for hCr (human Cripto) expression with specific anti-Cripto antibodies. Approximately 4000 cells/well of T-47D-EcoR or T-47D-hCr were plated in a 96 well plate in media containing 2% serum with/without 25 ng/ml Activin B (R&D) or […] plus 0.1-50 μg/ml A8G3.5. Media with factors was replaced daily for 7-8 days. The plate was harvested by adding 20 μl/well CellTiter AQueous One solution (Promega), incubating 2 hours 37° C., and reading at 490 nm.
(§2) We grew T-47D and T-47D-EcoR cells in low serum conditions, with or without Activin A or B and assayed for proliferating cells using an MTT colorimetric assay.

Experiment [1] has as its target T1, CR-Fc (Homo sapiens, UniProt P13385).
T1 sequence (P13385 31-150): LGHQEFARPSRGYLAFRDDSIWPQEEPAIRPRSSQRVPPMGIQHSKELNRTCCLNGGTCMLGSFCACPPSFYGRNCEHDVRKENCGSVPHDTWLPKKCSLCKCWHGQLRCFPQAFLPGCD
The experiment in a line: Biacore, CR-Fc immobilized on chip. It is filed as binding. To be noted: for binding to CR-Fc immobilized on a Biacore chip: FIG. 10. From the text:
We also analyzed the Cripto-Activin B interaction using Biacore. […] We also observed that Activin A binding to CR-Fc was negligible.
Background: Surface plasmon resonance follows binding to a sensor surface in real time, without labels.

In the next experiment the test system is T-47D-CR cells. The experiment is described as follows: Proliferation of T-47D-CR cells with Activin, with or without anti-Cripto mab. Format: cell-based, human. To be noted: low serum; FIG. 6. As to the method:
as §1, §2
We then tested whether antibodies of the invention can inhibit the Cripto-Activin B interaction. We treated T-47D-CR cells with Activin B in the presence of various antibodies of the invention. We observed that the growth suppressive activity of Activin B was restored in the presence of 10 or 20 μg/ml mab A8G3.5 (FIG. 7).

Experiment [2] deals with T1, CR-Fc. The experiment in a line: ELISA of CR-Fc on ligand-coated plates. To be noted: for inhibition of CR-Fc binding to Activin B coated plate: CR-Fc pre-incubated with ligand in solution, FIG. 9; for binding of CR-Fc to ligand-coated wells: ELISA plates coated with purified ligand, FIG. 8. Format: binding. The procedure: In still other experiments, we coated 96 well plates by adding to each well 100 μl of 3-5 μg/ml Activin B or another ligand in 50 mM carbonate (pH 9.5). We incubated the plates for 1 hr. at room temperature and blocked overnight with TBS/1% BSA overnight at 4° C. We incubated the plate with CR-Fc or ALK4-Fc in blocking buffer at room temperature, washed in TBST and probed with anti-human-AP (Jackson). We washed the plate in TBST, once in 10× substrate buffer (200 mM Tris-HCl, 10 mM MgCl2, pH 9.8) and added CSPD and Sapphire (Applied Biosystems).
We discovered that Cripto binds directly to Activin B. We coated ELISA plates with purified Activin B, Activin A, TGFβ1, GDNF or BMP2 and incubated with CR-Fc. We then added anti-Fc antibody conjugated to alkaline phosphatase and monitored binding by adding an alkaline phosphatase substrate and developing.
In general terms: In an ELISA, binding on a coated surface is turned into a signal by an enzyme label.

For the substance “Activin A: purified ligand protein tested on T-47D cells and for binding to CR-Fc”, the “inhibition of proliferation of T-47D cells” value with T-47D cells is on record as “approximately 40%”. Besides, in the experiment with CR-Fc [1], the “binding to CR-Fc immobilized on a Biacore chip” value was “negligible”. In the experiment on T-47D-CR cells, the “response of T-47D-CR cell proliferation to Activin” value was “inhibited by Activin A”. Further, in the experiment with CR-Fc [2], the “inhibition of CR-Fc binding to Activin B coated plate” value is recorded as “only Activin B inhibits binding” and the “binding of CR-Fc to ligand-coated wells” value was “not to Activin A”.
“Activin B: purified ligand protein (R&D) that binds Cripto and inhibits tumor cell proliferation”: in the experiment with T-47D cells, the “inhibition of proliferation of T-47D cells” value is “approximately 40%”. Besides, the “on rate of binding to Cripto” value in the experiment with CR-Fc [1] (Biacore) is reported as “fast on rate”. For the same substance, the “binding to CR-Fc immobilized on a Biacore chip” value in the experiment with CR-Fc [1] is “directly binds CR-Fc immobilized on a Biacore chip with a high intensity”. The “response of T-47D-CR cell proliferation to Activin” value in the experiment on T-47D-CR cells was “not responsive to Activin B”. Besides, in the experiment with CR-Fc [2], the “inhibition of CR-Fc binding to Activin B coated plate” value is recorded as “only Activin B inhibits binding” and the “binding of CR-Fc to ligand-coated wells” value was “bound to wells containing Activin B”.
